Assay [1] concerns the target T1, human LAG3 expressed on HEK293A cells (human, UniProt P18627 23-525).
T1 construct: whole, on cells; also called HEK293A/human LAG3
T1 sequence (looked up): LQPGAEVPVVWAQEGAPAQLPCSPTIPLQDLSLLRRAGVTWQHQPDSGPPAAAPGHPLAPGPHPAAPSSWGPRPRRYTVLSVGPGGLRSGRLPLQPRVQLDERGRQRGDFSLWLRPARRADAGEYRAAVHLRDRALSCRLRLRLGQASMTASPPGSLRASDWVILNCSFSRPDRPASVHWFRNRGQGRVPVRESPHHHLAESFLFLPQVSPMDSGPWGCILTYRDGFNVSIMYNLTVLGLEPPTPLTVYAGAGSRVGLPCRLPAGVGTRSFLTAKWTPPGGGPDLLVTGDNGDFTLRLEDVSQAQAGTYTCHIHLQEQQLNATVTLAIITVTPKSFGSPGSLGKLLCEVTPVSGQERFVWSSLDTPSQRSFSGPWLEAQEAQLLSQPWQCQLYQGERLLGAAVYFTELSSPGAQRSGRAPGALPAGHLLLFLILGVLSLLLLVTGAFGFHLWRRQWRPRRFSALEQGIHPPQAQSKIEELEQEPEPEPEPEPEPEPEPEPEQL
Kind of assay: FACS on HEK293A/human LAG3 cells. On the procedure: (§1) Briefly, 10^5 HEK293A cells in 50 μl PBS buffers were seeded into each well of the 96-well plates and then added with 50 μl of serially diluted anti-LAG3 antibodies (5-fold dilution, starting from 40 μg/ml). After incubated at 4° C. for 1 hour, plates were washed 3 times with PBST. Then, an APC coupled Goat Anti-Mouse IgG (BioLegend, US, Cat #: 405308) diluted 500× was added to the plates. After incubation at 4° C. for 1 hour, the plates were washed with PBS for 3 times and then cell fluorescence was monitored using a FACS machine (BD).

Assay [2] deals with T2, mouse LAG3 expressed on HEK293A cells (mouse, UniProt Q61790 24-521).
T2 construct: whole, on cells; also called HEK293A/mouse LAG3
T2 sequence (looked up): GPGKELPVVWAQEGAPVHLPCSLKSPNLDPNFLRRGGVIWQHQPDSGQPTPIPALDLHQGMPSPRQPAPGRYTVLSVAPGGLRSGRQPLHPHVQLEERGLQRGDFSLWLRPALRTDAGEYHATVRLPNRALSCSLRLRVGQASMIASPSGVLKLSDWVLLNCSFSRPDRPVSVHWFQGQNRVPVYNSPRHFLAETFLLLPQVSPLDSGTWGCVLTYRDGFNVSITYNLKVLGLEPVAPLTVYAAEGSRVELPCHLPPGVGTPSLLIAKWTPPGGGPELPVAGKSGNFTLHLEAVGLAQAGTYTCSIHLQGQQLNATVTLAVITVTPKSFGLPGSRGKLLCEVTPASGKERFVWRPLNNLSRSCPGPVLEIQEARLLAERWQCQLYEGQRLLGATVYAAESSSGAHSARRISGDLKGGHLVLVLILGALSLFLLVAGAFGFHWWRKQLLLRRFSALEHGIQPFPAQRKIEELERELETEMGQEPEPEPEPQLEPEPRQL
Kind of assay: FACS on HEK293A/mouse LAG3 cells. On the procedure: as §1

Assay [3] deals with T3, recombinant human LAG3(ECD)-his (Sino Biological, Cat #: 16498-H08H) (human, UniProt P18627 23-450).
T3 construct: extracellular domain; Bought protein; not shown: his tag
T3 sequence (looked up): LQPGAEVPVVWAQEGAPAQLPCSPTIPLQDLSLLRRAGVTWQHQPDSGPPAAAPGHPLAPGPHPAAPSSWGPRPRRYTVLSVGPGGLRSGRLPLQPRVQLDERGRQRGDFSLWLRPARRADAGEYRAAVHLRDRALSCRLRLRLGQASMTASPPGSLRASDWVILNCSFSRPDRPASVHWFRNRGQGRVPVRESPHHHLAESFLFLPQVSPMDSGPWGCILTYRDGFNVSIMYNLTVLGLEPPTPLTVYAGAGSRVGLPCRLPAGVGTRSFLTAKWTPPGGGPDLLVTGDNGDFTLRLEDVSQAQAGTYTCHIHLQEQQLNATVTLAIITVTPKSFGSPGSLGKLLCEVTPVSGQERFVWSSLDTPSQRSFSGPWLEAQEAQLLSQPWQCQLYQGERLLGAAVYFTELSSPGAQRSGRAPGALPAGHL
Kind of assay: ELISA, coated human LAG3(ECD)-his. On the procedure:
The wells were blocked with 200 µl of blocking buffer (PBS containing 1% BSA, 1% goat serum, and 0.05% Tween 20) for 2 hours at room temperature, and then 100 µl of serially diluted anti-LAG3 antibodies (starting from 40 µg/ml) were added to each well and incubated for 1 hour at RT. Plates were washed for 3 times with PBST (PBS+0.05% Tween 20), added with Goat-anti-mouse IgG-HRP (Sigma, US, Cat #: A9309-1 ml) diluted 5000×, and incubated for 1 hour at RT. Plates were developed with freshly prepared Ultra-TMB (BD, US, Cat #:555214) for 5 minutes at RT. Absorbance was read on a SpectraMaxR i3X (Molecular Devies, US) at 450 nm.

B1: mouse anti-LAG3 monoclonal antibody 101F4 (antibody, V domains shown)
VH: EVQLEQSGAELVRPGASVTLSCKASGYTFTDYEMHWVKQTPVYGLEWMGAIDPETGGIVYNQRFKGKAILTADKSSSTAYMELRSLTSEDSAVYYCTGAGWGYWGQGTTLTVSS
VL: DIVITQSPSSMYASLGERVTITCKASQDINSYLSWFQQKPGKSPKTLIYRANRLLDGVPSRFSGSGSGQDYSLTISSLEFEDMGLYYCLQYDEFPFTFGSGTKLEIK
One may read the EC50 as the concentration needed to bring the measured effect to its halfway point. Regarding B1, the EC50 turned out to be 0.36 nM in assay [1] and 4 nM in assay [3]. For the same molecule, the binding result in assay [2] was “no binding (tested: starting from 40 µg/ml)”.

B2: mouse anti-LAG3 monoclonal antibody 134G10 (antibody, V domains shown)
VH: EVQLVESGGDLVKPGGSLKLSCAASGFTFSSFGMSWVRQTPDKRLEWVGIISSGGTYTFYPDILKGRFTISRDNAKNTLYLQMSSLKSEDTAMYYCARVYSDYDGRFDYWGQGTTLTVSS
VL: DIVMTQSPSSLSVSAGEKVTMNCKSSQSLLNSGNQKNYLAWYQQKPGQPPKLLIYGASTRESGVPDRFTGSGSGTDFTLTISSVQAEDLAVYYCQNDHSYPLTFGAGTKLELK
As for B2, the half-maximal effective concentration (EC50) in assay [1] was 8.6 nM; in assay [3] it was 1.92 nM. The binding result in assay [2] is on record as “no binding (tested: starting from 40 µg/ml)”.

Values taken from patent publication US10946092 (BEIJING MABWORKS BIOTECH, dated 2021).
